Source: paper doi:10.1101/2023.10.26.564194 (bioRxiv, 2023)

Key:
[1] = target: T1, recombinant His-tagged NRF2, full length (UniProt Q16236 1-605); assay: MST
T1 sequence: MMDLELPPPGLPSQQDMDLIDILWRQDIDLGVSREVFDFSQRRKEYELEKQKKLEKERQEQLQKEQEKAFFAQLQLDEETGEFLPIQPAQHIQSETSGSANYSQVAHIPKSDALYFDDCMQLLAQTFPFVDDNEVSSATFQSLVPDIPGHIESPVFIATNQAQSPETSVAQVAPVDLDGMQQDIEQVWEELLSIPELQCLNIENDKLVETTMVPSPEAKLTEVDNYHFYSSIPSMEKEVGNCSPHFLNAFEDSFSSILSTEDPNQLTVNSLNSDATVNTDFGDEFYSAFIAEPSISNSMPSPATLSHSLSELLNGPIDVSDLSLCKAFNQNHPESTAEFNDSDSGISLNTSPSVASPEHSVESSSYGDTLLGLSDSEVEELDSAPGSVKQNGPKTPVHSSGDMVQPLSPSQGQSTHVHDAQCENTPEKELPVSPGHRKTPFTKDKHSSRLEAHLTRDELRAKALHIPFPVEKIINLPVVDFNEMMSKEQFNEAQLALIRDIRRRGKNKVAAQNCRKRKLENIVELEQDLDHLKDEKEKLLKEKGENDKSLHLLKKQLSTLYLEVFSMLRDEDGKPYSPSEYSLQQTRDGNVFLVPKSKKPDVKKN

[2] = target: T2, recombinant His-Tag NRF2 truncation mutant Δ205-400 amino acids (Neh6/7 domains deleted) (UniProt Q16236 1-605, Δ205-400); assay: pull-down
T2 sequence: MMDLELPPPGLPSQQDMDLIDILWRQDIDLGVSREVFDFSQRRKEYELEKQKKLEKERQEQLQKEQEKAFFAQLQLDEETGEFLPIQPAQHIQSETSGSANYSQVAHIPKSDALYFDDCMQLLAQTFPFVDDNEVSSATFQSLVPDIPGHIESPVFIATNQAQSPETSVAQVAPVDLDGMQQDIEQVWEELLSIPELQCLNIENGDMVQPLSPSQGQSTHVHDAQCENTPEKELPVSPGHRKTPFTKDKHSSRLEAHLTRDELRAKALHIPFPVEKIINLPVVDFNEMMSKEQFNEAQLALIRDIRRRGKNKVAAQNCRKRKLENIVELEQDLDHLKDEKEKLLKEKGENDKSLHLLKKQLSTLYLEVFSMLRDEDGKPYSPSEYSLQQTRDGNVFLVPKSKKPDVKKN

Kd [1]: 859 ± 70.1 nM
binding result [2]: binds
B1: recombinant αB-crystallin (natural protein)
chain: MDIAIHHPWIRRPFFPFHSPSRLFDQFFGEHLLESDLFPTSTSLSPFYLRPPSFLRAPSWFDTGLSEMRLEKDRFSVNLDVKHFSPEELKVKVLGDVIEVHGKHEERQDEHGFISREFHRKYRIPADVDPLTITSSLSSDGVLTVNGPRKQVSGPERTIPITREEKPAVTAAPKK
